The record followed here is US20240417462A1 (SHANGHAI CELGEN BIO PHARMACEUTICAL, published 2024).

Experiment [1] has as its target T1, recombinant human TIGIT (Human TIGIT His, Sino Biological, 10917-H08H) (human, UniProt Q495A1 22-138).
T1 construct: range 1-138; bought; also called hTIGIT
T1 sequence (looked up): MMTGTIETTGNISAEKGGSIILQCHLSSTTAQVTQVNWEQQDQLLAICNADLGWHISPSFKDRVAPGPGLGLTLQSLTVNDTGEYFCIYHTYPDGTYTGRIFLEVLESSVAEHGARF
Briefly: BLI, antibody captured on anti-human Fc probe, TIGIT-His in solution. The protocol:
The dissociation constant (Kd) of the human mouse chimeric TIGIT monoclonal antibody was detected by using a GATORS (ProbeLife) detection instrument and an HFC (LOT #2007065 Tray 2), Human antibody Capture probe. The human mouse chimeric TIGIT monoclonal antibody was diluted to 30 nM in a binding buffer (Q buffer [PBS (10 mM PH7.4)+0.02% Tween 20+0.2% BSA]). The recombinant human TIGIT protein was diluted in Q buffer in a 2-fold gradient to different concentrations varying in the range of 40 nM to 10 nM. A kinetic correlation determination was initiated by placing an antibody capture sensor in the continuously diluted antigen solution described above. Octet Data Acquisition software was opened and New Kinetics Experiment-Basic Kinetics mode was selected.
(BLI is a label-free optical method that tracks binding on a fibre tip over time.)

The target of experiment [2] is T2, full-length human TIGIT expressed on CHO-K cell membrane (CHO-K-TIGIT) (human, UniProt Q495A1 22-244).
T2 construct: whole, on cells; also called CHO-TIGIT; membrane TIGIT
T2 sequence (looked up): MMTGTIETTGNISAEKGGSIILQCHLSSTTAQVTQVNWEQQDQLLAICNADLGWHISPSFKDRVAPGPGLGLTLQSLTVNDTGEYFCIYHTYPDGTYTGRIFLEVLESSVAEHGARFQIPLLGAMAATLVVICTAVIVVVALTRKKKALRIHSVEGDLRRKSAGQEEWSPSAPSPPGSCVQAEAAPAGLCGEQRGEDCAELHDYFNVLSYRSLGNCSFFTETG
Description: flow cytometry, CHO-TIGIT cells. For orientation: Flow cytometry measures light scatter and fluorescence of single cells or particles in a stream.

In experiment [3] the target is T1, recombinant human TIGIT (Human TIGIT …). Description: ELISA, recombinant human TIGIT (His) coated, anti-human-Fc-AP, OD405/490. The protocol:
(§1) Antigen hTIGIT (Human TIGIT (His), Sino Biological, 10917-H08H) was diluted into 1 μg/mL with a NaHCO₃ solution of pH 9.6, 50 μl per well was added to a 96-well ELISA plate, and placed overnight in refrigerator at 4° C.
(§2) In order to determine whether the humanized TIGIT monoclonal antibody of the present disclosure could bind to the recombinant human TIGIT protein, in vitro testing was performed. Murine antibodies and Tiragolumab (Tira) were used as positive controls. The experimental method was the same as in Example 3.1.
In general terms: In an ELISA, binding on a coated surface is turned into a signal by an enzyme label.

Experiment [4] has the same target. Briefly: competition ELISA, coated TIGIT-His, CD155-mFC as competitor. How it is done:
Antigen TIGIT (Human TIGIT (His), Sino Biological, 10917-H08H) was diluted with pH 9.6 of NaHCO₃ solution into 1 μg/mL, 50 μL per well was added to a 96-well ELISA plate, and placed overnight at 4° C. in a refrigerator. The next day, after washing with PBS twice, plate was blocked with 3% BSA (100 μL per well) by incubating at 37° C. for 1.5 h, and washed 4 times with PBST.

Experiment [5] has the same target. Briefly: BLI, antibody captured on anti-human Fc probe, TIGIT-His in solution. The source holds these as a separate data set.
The target is the same in experiment [6]. Description: competition ELISA, human TIGIT (His) coated, antibody titrated against fixed CD155, bound CD155 detected, OD450/655.
The target is the same in experiment [7]. Briefly: ELISA, coated human TIGIT-His.
For experiment [8] the target is unchanged. Briefly: competition ELISA on recombinant human TIGIT, CD155 as competitor.
Experiment [9] shares this target. Description: BLI, antibody captured on anti-human Fc probe, TIGIT-His in solution. The source holds these as a separate data set.
Experiment [10] shares this target. Briefly: ELISA, recombinant human TIGIT (His) coated, anti-human-Fc-AP, OD405/490. How it is done: as §1, §2
This is another data set of the same source.

Where “and” joins values, the source holds several entries; their conditions need not be identical. Identical values can stand only once. Like-named read-outs stand apart in the source and are kept apart here.

B1: anti-human TIGIT human mouse chimeric monoclonal antibody 7103-07 (hFc) (antibody, V domains shown)
VH: EVQVVESGGGLVKPGGTLKLSCAASGFTFSTYAMSWVRQSPEQRLEWVAEISSGGSHTFYSDTVTGRFTISRDNAQNTLYLEMNSLRSEDTAMYYCARKTLDYYALDYWGQGTSVTVSS
VL: DVQITQSPSYLAASPGETITINCRASKSISKYLAWYQEKPGKTNKLLIYSGSRLQSGIPSKFSGSGYGTDFTLTISSLEPEDFAMYYCQQHNEYPWTFGGGTKVEIK
notes: also called 7303-07 (hFc); human mouse chimeric antibody
As usually defined, the Kd is the concentration at which binding is half-saturated. One may read the koff as the rate constant with which the complex falls apart. For orientation: kon means the rate constant with which the complex forms. A word on the EC50: it is the midpoint of the concentration-response curve. As a reminder, the IC50 is the concentration that gives 50% inhibition. For B1, the Kd in experiment [1] was 1.72 nM; in experiment [5], 2.96 nM. The koff was determined as 0.00167 s⁻¹ in experiment [1] and 0.00169 s⁻¹ in experiment [5]. Also, the results for the kon in experiment [1] and in experiment [5] were 971000 M⁻¹ s⁻¹ and 573000 M⁻¹ s⁻¹, respectively. Moreover, the EC50 was 1.35 nM and 0.927 nM in experiment [2]; 0.0095 µg/mL in experiment [3]. Also, the results for the IC50 in [4] and in experiment [6] were 1.7 nM and 0.041 µg/mL, respectively.

B2: anti-human TIGIT human mouse chimeric monoclonal antibody 7103-06 (hFc) (antibody, V domains shown)
VH: EEQLVESGGGLVKPGGTLKLSCAASGFTFSTYAMSWVRQSPEKRLEWVAEISSGGSYTYYSDTVTGRFTISRDNAKNTLYLEMSSLRSEDTAMYYCARKTLDYYALDYWGHGTSVTVSS
VL: DVQITQSPSYLAASPGETITINCRANKTISKYLAWYQEKPGKTNKLLIYSGSRLQSGIPSKFSGSGYGTDFTLTISSLEPEDFAMYYCQQHNEYPWTFGGGTKLEIK
On to B2, for which, in [1], the Kd worked out at 1.29 nM, the koff was found to be 0.00139 s⁻¹ and the kon was found to be 1.07e+06 M⁻¹ s⁻¹. Moreover, it took 0.873 nM to reach a half-maximal effect in experiment [2] (EC50). Also, the IC50 in experiment [4] amounted to 2.03 nM. Moreover, the EC50 in experiment [7] worked out at 0.554 nM.

B3: humanized anti-human TIGIT monoclonal antibody P04666 (antibody, V domains shown)
VH: EVQVVESGGGLVKPGGSLRLSCAASGFTFSTYAMSWVRQAPEQRLEWVAEISSGGSHTFYADTVKGRFTISRDNAKNTLYLQMNSLRAEDTAVYYCARKTLDYYALDYWGQGTTVTVSS
VL: DVQITQSPSSVSASVGETITINCRASKSISKYLAWYQQKPGKAPKLLIYSGSRLQSGVPSRFSGSGSGTDFTLTISSLQPEDFATYYCQQHNEYPWTFGGGTKLEIK
Regarding B3, in [3], the EC50 is 0.0137 µg/mL and 0.0915 nM. Besides, in [5], the Kd was determined as 2.19 nM, the koff came to 0.00347 s⁻¹ and the on-rate (kon) turned out to be 1.59e+06 M⁻¹ s⁻¹. Besides, the IC50 in [6] was found to be 0.019 µg/mL. Also, the IC50 in experiment [8] is 0.127 nM.

B4: humanized anti-human TIGIT monoclonal antibody P04667 (antibody, V domains shown)
VH: EVQVVESGGGLVKPGGSLRLSCAASGFTFSTYAMSWVRQAPEQRLEWVAEISSGGSHTFYADTVKGRFTISRDNAKNTLYLQMNSLRAEDTAVYYCARKTLDYYALDYWGQGTTVTVSS
VL: DIQMTQSPSSVSASVGETITITCRASKSISKYLAWYQQKPGKAPKLLIYSGSRLQSGVPSRFSGSGSGTDFTLTISSLQPEDFATYYCQQHNEYPWTFGGGTKLEIK
In the case of B4, the EC50 in [3] is 0.0125 µg/mL and 0.0836 nM. In experiment [5], the Kd was found to be 4.2 nM, the koff came out at 0.00565 s⁻¹ and the kon amounted to 1.35e+06 M⁻¹ s⁻¹. Further, the IC50 in experiment [6] came out at 0.094 µg/mL. Besides, the IC50 in experiment [8] was 0.631 nM.

B5: anti-human TIGIT human mouse chimeric monoclonal antibody 7103-01 (hFc) (antibody, V domains shown)
VH: QVQLQQPGAELVKPGASVKLSCKASGYTFISYNIYWVKQRPGQGLEWIGGVNPSNGNTNFNENFKSKATLTVDKSSSTAYMQLSSLTSDDSAVYFCTRGNYYGYEFAYWGQGTLVTVSA
VL: DIVMTQSHKFMSTSVGDRVSITCKASQHVSTAVAWYQQKPGQSPKLLIYSPSYRYTGVPDRFTGSGSGTDFTFTISSVQAEDLAVYYCQQHYSTPWTFGGGTKLEIK
notes: also called 7301-01 (hFc)
For B5, in experiment [1], the equilibrium dissociation constant (Kd) was found to be 0.574 nM, the koff was found to be 0.000405 s⁻¹ and the kon worked out at 706000 M⁻¹ s⁻¹. Besides, in [9], the Kd came to 1.73 nM, the koff was 0.000951 s⁻¹ and the kon is 549000 M⁻¹ s⁻¹. The molecule further yielded an EC50 in [2] of 1.08 nM. Also, the IC50 in experiment [4] stood at 4.03 nM. Also, the EC50 in experiment [7] was determined as 0.499 nM.

B6: anti-human TIGIT human mouse chimeric monoclonal antibody 7103-03 (hFc) (antibody, V domains shown)
VH: EVQLQQSGPELVKPGASVKISCKTSGYTFTEYTMHWVKQSHGKSLEWIGGINPNNGGTSYNQKFKGKATLTVDKSSSTAYMELRSLTSEDSAVYYCARGAYYRYDFDYWGQGTTLTVSS
VL: DIVMTQSHKFMSTSVGDRVSITCKASQDVRTAVVWYQQKPGQSPKLLIYSASYRYTGVPDRFTGSGSGTDFTFTISSVQAEDLAVYYCQQHYSTPWTFGGGTKLEIK
For B6, in experiment [1], the Kd came out at 1.14 nM, the koff stood at 0.00091 s⁻¹ and the kon came to 801000 M⁻¹ s⁻¹. In experiment [2], this molecule came in with an EC50 of 0.596 nM. In addition, the IC50 in experiment [4] came to 1.46 nM. In experiment [7], the EC50 worked out at 0.38 nM.

B7: anti-human TIGIT human mouse chimeric monoclonal antibody 7103-04 (hFc) (antibody, V domains shown)
VH: VQLQESGAELVKPGASVKLSCRASGYTFTDYFVYWVKQRPGQGLEWIGGINPSNGGATFNEKFKNKATLTVDTSSSTAYMQLSSLTSEDSAIYYCTRGNFYGYEFAYWGQGTLVTVSA
VL: DIVMTQSHKFISTSVGDRVSITCKASQHVSTAVVWYQQKPGQSPKLLIYSPSYRYTGVPDRFTGSGSGTDFTFTISSVQAEDLAVYYCQQHYITPWTFGGGTKLEIK
As to B7, in experiment [1], the Kd was determined as 0.661 nM, the koff came to 0.000558 s⁻¹ and the kon came to 845000 M⁻¹ s⁻¹. Moreover, in experiment [2], a half-maximal effect (EC50) was put at 0.867 nM. For the same molecule, the half-inhibitory concentration (IC50) in experiment [4] was 3.3 nM. Moreover, the EC50 in experiment [7] amounted to 0.554 nM.

B8: Tiragolumab (antibody, V domains shown)
VH: EVQLQQSGPGLVKPSQTLSLTCAISGDSVSSNSAAWNWIRQSPSRGLEWLGKTYYRFKWYSDYAVSVKGRITINPDTSKNQFSLQLNSVTPEDTAVFYCTRESTTYDLLAGPFDYWGQGTLVTVSS
VL: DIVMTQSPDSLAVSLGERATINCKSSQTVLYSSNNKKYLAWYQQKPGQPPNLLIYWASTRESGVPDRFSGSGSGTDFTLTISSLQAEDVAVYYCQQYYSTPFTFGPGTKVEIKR
As to B8, the EC50 in experiment [2] is 1.36 nM and 3.84 nM and 1.72 nM; in [3], 0.0242 µg/mL; in experiment [10] it was 0.0806 µg/mL. Moreover, the IC50 in experiment [4] was 5.24 nM; in experiment [6], 0.116 µg/mL.
